The target in one experiment is HLA-A*02:02. As to the kind of experiment: IEDB peptide-MHC binding, purified MHC/competitive/radioactivity; filed as Kd, often an IC50 or EC50 that approximates it; ≥ and ≤ were set here for values at or beyond the usual limits of such assays.
The next experiment has as its target HLA-A*02:03. The experiment is described as above.
The next experiment concerns the target HLA-A*02:06. The experiment is described as above.
The next experiment deals with HLA-A*03:01. As to the kind of experiment: IEDB peptide-MHC binding, purified MHC/direct/fluorescence; filed as Kd, often an IC50 or EC50 that approximates it; ≥ and ≤ were set here for values at or beyond the usual limits of such assays.
The target of the next experiment is HLA-A*01:01. The experiment is described as above.
In a further experiment the target is HLA-A*69:01. The experiment is described as above.
The next experiment concerns the target HLA-B*58:01. Described as above.
In the next experiment the target is HLA-A*02:01. The experiment is described as above.
The mark [1] stands for this setting: source organism: SARS coronavirus Tor2.
Where [2] appears, read: source organism: Vaccinia virus WR.
Setting [3] is: source organism: Mammarenavirus tacaribeense.
[4] abbreviates: source organism: Human immunodeficiency virus type 1 (isolate YU2).
Setting [5] is: source organism: Entamoeba histolytica HM-1:IMSS.
Setting [6] is: source organism: Mammarenavirus brazilense.
Where [7] appears, read: source organism: Mammarenavirus juninense.
[8] abbreviates: source organism: Haemophilus influenzae.

A value given as a limit tells only on which side of the number the result lay.

Data on 37 sequences can be found in the Immune Epitope Database (IEDB).

With LLFNKVTLA, the Kd (as a rule, the free concentration of one partner at which half of the binding sites on the other are occupied at equilibrium, for simple one-to-one binding) with HLA-A*02:02 (setting [1]) was found to be 0.953 nM; with HLA-A*02:03 (setting [1]) it was 1.06 nM; with HLA-A*02:06 (setting [1]), 9.01 nM.
Consider GLCNYGGILI, for which the figures for the Kd with HLA-A*02:02 (setting [2]), in the experiment with HLA-A*02:03 (setting [2]) and in the experiment with HLA-A*02:06 (setting [2]) were 152 nM, 3210 nM and 5030 nM, respectively.
The like results for QTVDFTDCRT were, in that order, at least 30500 nM, at least 54300 nM and 3640 nM.
In the experiment with HLA-A*03:01 (source organism: Giardia lamblia ATCC 50803), HLYYFITYY gave a Kd of 150 nM.
RFRKKKKVY yielded a dissociation constant Kd with HLA-A*01:01 (source organism: Listeria monocytogenes) of at least 20000 nM.
Turning to YIENTNQGNI, the results for the Kd with HLA-A*02:02 (setting [2]), with HLA-A*02:03 (setting [2]) and with HLA-A*02:06 (setting [2]) were 1220 nM, 582 nM and 6200 nM, respectively.
On to TAATKRYPGV, for which the Kd is at least 25500 nM in the experiment with HLA-A*02:02 (setting [2]), 10500 nM with HLA-A*02:03 (setting [2]) and 5570 nM with HLA-A*02:06 (setting [2]).
The corresponding values for SINNQLMYDI are 492 nM, 482 nM and 4830 nM.
On to ALSGVFCGV, for which the Kd with HLA-A*02:02 (setting [1]) stood at 1.16 nM; with HLA-A*02:03 (setting [1]) it was 11.6 nM; with HLA-A*02:06 (setting [1]), 49.8 nM.
With MYKLNKPTK, the Kd in the experiment with HLA-A*01:01 (source organism: Camelpox virus M-96) was at least 20000 nM.
Regarding DTIAHINTLI, the Kd was 1160 nM with HLA-A*02:02 (setting [2]), 114 nM in the experiment with HLA-A*02:03 (setting [2]) and at least 62200 nM with HLA-A*02:06 (setting [2]).
As for INISGYNLSL, the Kd in the experiment with HLA-A*02:02 (setting [3]) turned out to be 179 nM; with HLA-A*02:03 (setting [3]), 1360 nM; with HLA-A*02:06 (setting [3]) it was 11400 nM.
As to PLNEGIMAV, the Kd is at least 5000 nM with HLA-A*69:01 (source organism: dengue virus type 1) and 118 nM with HLA-A*02:03 (source organism: Dengue virus 1 Singapore/S275/1990).
With KQNHMQILK, the Kd in the experiment with HLA-A*03:01 (source organism: Francisella tularensis subsp. holarctica LVS) stood at 156 nM.
KTKISVEKI: the Kd with HLA-A*02:02 (setting [2]) came out at 7600 nM; with HLA-A*02:03 (setting [2]), 112 nM; with HLA-A*02:06 (setting [2]) it was 10700 nM.
For LMIFISSFL, the Kd with HLA-A*02:02 (setting [2]) was 0.651 nM; with HLA-A*02:03 (setting [2]), 0.13 nM; with HLA-A*02:06 (setting [2]) it was 17.8 nM.
The corresponding values for CLTVPNITI are 95.9 nM, 75.2 nM and 1660 nM.
With SAFNDDGIYI, the values for the Kd with HLA-A*02:02 (setting [2]), with HLA-A*02:03 (setting [2]) and in the experiment with HLA-A*02:06 (setting [2]) were 35.2 nM, 67.7 nM and 40.9 nM, respectively.
The like results for PANINDKQIM were, in that order, at least 49500 nM, at least 43100 nM and 10900 nM.
Regarding QVDQGIEYY, the Kd in the experiment with HLA-A*01:01 (source organism: Mycobacterium tuberculosis) was determined as 119 nM.
As to LTTVFIKYV, the dissociation constant Kd was 3650 nM with HLA-A*02:02 (setting [2]), 676 nM in the experiment with HLA-A*02:03 (setting [2]) and 130 nM with HLA-A*02:06 (setting [2]).
With KSFFWFNEV, the Kd with HLA-A*02:02 (setting [3]) worked out at 61.9 nM; in the experiment with HLA-A*02:03 (setting [3]) it was 264 nM; with HLA-A*02:06 (setting [3]) it was 3.18 nM.
In the case of TTFITVLTSV, the Kd in the experiment with HLA-A*02:02 (setting [2]) came out at 1120 nM; with HLA-A*02:03 (setting [2]), 16.1 nM; with HLA-A*02:06 (setting [2]), 166 nM.
In the case of RIKQIINMW, the results for the Kd with HLA-A*01:01 (setting [4]), in the experiment with HLA-A*03:01 (setting [4]) and with HLA-B*58:01 (setting [4]) were 5560 nM, 3660 nM and 884 nM, respectively.
For GMLECGFPT, the Kd with HLA-A*02:01 (setting [5]) is 4.8 nM; with HLA-A*69:01 (setting [5]), at least 5000 nM.
With VQLSNNKYV, the results for the Kd with HLA-A*02:02 (setting [2]), with HLA-A*02:03 (setting [2]) and with HLA-A*02:06 (setting [2]) were 7340 nM, 541 nM and 214 nM, respectively.
In the case of SSSTEVETY, the Kd with HLA-B*58:01 (source organism: Influenza A virus (A/New York/124/2001(H3N2))) amounted to 495 nM.
Take YNYSLSAAV: the equilibrium dissociation constant (Kd) with HLA-A*02:02 (setting [6]) worked out at 78.9 nM; in the experiment with HLA-A*02:03 (setting [6]), 67.2 nM; with HLA-A*02:06 (setting [6]), 88.4 nM.
Consider TLDAANHSI, for which the Kd is 92.4 nM in the experiment with HLA-A*02:02 (setting [1]), 283 nM with HLA-A*02:03 (setting [1]) and 28.9 nM with HLA-A*02:06 (setting [1]).
Regarding RVKQWVMDTL, the figures for the Kd with HLA-A*02:02 (setting [2]), with HLA-A*02:03 (setting [2]) and with HLA-A*02:06 (setting [2]) were 3480 nM, 689 nM and at least 27800 nM, respectively.
For KSDLQPPNY, the Kd is 55 nM with HLA-A*01:01 (source organism: Homo sapiens), 18700 nM with HLA-A*03:01 (source organism: Homo sapiens), 1330 nM with HLA-A*69:01 (source organism: Homo sapiens) and 220 nM with HLA-B*58:01 (source organism: Homo sapiens).
In the case of YNFSLSAAV, the figures for the Kd with HLA-A*02:02 (setting [7]), with HLA-A*02:03 (setting [7]) and in the experiment with HLA-A*02:06 (setting [7]) were at least 46200 nM, at least 78100 nM and at least 77000 nM, respectively.
For the sequence VAVNKSNKPL, the Kd came to 2750 nM with HLA-A*02:02 (setting [2]), 5130 nM with HLA-A*02:03 (setting [2]) and 17600 nM with HLA-A*02:06 (setting [2]).
ALGYTTEEI: the Kd in the experiment with HLA-A*02:01 (setting [8]) turned out to be 338 nM; in the experiment with HLA-A*69:01 (setting [8]), 7480 nM.
As for LIISTDQDT, the Kd with HLA-A*02:02 (setting [2]) is at least 77800 nM; with HLA-A*02:03 (setting [2]), at least 78100 nM; with HLA-A*02:06 (setting [2]), at least 77100 nM.
The corresponding values for CAVIPFDDIV are 2920 nM, 7420 nM and 184 nM.
For IVCSKTVKNV, the Kd with HLA-A*02:02 (setting [2]) was determined as 10800 nM; with HLA-A*02:03 (setting [2]), 503 nM; with HLA-A*02:06 (setting [2]), 2760 nM.
